Assay results published in US20020137684A1, “Ligand for enhancing oral and CNS delivery of biological agents” (priority 2000, published 2002).
Where no end group is shown, it is not given here. [ ]: non-standard residue; d: D form. TAMRA = carboxytetramethylrodamine

Experiments:
Caco-2 monolayers [1] = assay: Inhibition of phage transport across Caco-2 monolayers by SEQ. ID. NO.:1-Peroxidase conjugate; conditions: 50 μg/ml conjugate, 3 hours
Experimental: The cell monolayers on the insert filter apically and basolaterally were rinsed twice on each side with PBS and pre-incubated with pre-warmed D-MEM for 30 min. The medium in apical chamber was gently removed. […] The inserts were transferred to the new chamber. ^3H-Manitol was used as a probe to monitor Caco-2 monolayer leakiness. The medium containing isotope-labeled compound, a phage that expresses a peptide comprising an amino acid sequence of SEQ. […] NO.:4 (5×10^9 cfu/ml) or wild-type phage (Control phage 1.5×10^9 cfu/ml) in the presence and absence of 50 μg/ml of SEQ. […] NO.:1-Peroxidase conjugate was added to the apical side. After 3 hours incubation, the media from apical and basolateral sides of the chamber was collected and used to determine the phage and ^3H-manitol transport across Caco-2 monolayers. The relative transport of compounds in % through Caco-2 was calculated as:
where Cb is a concentration of compound in basolateral chamber, Ca is a concentration of compound in the apical chamber, Vb is a volume of media in basolateral chamber and Va is a volume of media in the apical chamber. The transport of phage that expresses a peptide comprising an amino acid sequence of SEQ. […] NO.:4, or peptide SEQ. […] NO.:1-Peroxidase conjugate was detected.

Caco-2 monolayers [2] = assay: Transport of peroxidase conjugate across Caco-2 monolayers; conditions: 25 µg/ml apical, peroxidase activity
Experimental: A two-chamber Caco-2 model was used to evaluate the transport of a conjugate comprising peroxidase and a peptide comprising an amino acid sequence of SEQ. ID. NO.:1 across the intestinal barrier (IB) in vitro. […] The medium containing isotope-labeled compound, the SEQ. ID. NO.:1-Peroxidase conjugate ([…]) or Control Peroxidase conjugate ([…]) was added to the apical side of cultured Caco-2 monolayers.

Caco-2 monolayers [3] = assay: Transport of peptides across Caco-2 monolayers (Transwell, fluorescence); format: in vitro ADME, human; conditions: 50 micromol/L apical
Experimental: The desired numbers of Transwell (6.5mm diameter, 0.4 μm pore size) were placed in the wells of the tissue culture plates. The filters were wetted with medium (0.1 ml to the apical and 0.6 ml to the basolateral sides of Transwell) for 30 min in the CO2 incubator before the harvest of the cells from the flasks. The cells were re-suspended in the medium 5×10^5 cells/ml and 0.2 ml of cell suspension medium was added to the apical side of the Transwell and cultured in the CO2 incubator. The medium was changed every second day for 8-12 days to obtain well-differentiated monolayers suitable for transport experiences.
The medium in apical chamber was gently removed. […] The inserts were transferred to the new chamber. […] Peptide SEQ. ID. NO.: 2, or SEQ. ID.
The concentration of peptide in sample was determined by the fluorescence of the sample using excitation 530 nm, emission 590 nm. The concentration of dextran in samples was determined by the fluorescence of the sample using excitation 480 nm, emission 530 nm.

CACO 2 cells = assay: Digestion of peptide in apical chamber of Caco-2 cells (HPLC); format: in vitro ADME, human
Experimental: Digestion of peptide SEQ. ID. NO.:2 in apical chamber was determined using HPLC. The samples were diluted 100 times with the media, and 0.200 mL of each was injected on a column RP-HPLC column Vydac 218TP54, pre equilibrated 15 minutes with 5 acetonitroile/water (10 mM phosphoric acid) at flow rate 1 mL per minute. Sample was eluted with two component gradient 1% per minute of acetonitrole (10 mM phosphoric acid)/water (10 mM phosphoric acid) at flow rate 1 mL per minute. Fluorescent detection was used with excitation wavelength 555 nm and emission wavelength 580 nm. The peptide SEQ. ID. NO.: 2 was eluted as sharp peak at 22.3 min. The percentage of remaining peptide was calculated as: […]
where A—area under the peak at 22.3 min, SUM(Ai)—the sum of area of all peaks eluted between 13 and 26 minutes.

Substance | inhibition of transport of SEQ. ID. NO.:4 phage across Caco-2 monolayers (Caco-2 monolayers [1]) | Transport through Caco-2 monolayers, P, % (Caco-2 monolayers [2]; 2 hours) | Transport through Caco-2 monolayers, P, % (Caco-2 monolayers [2]; 4 hours) | Transport [%] (Caco-2 monolayers [3]; 0.5 h) | Transport [%] (Caco-2 monolayers [3]; 1.0 h) | Transport [%] (Caco-2 monolayers [3]; 2.0 h) | Transport [%] (Caco-2 monolayers [3]; […]) | Remaining peptide [%] (CACO 2 cells; 0.5 h incubation with CACO 2 cells) | Remaining peptide [%] (CACO 2 cells; 1 h incubation with CACO 2 cells) | Remaining peptide [%] (CACO 2 cells; 2 h incubation with CACO 2 cells)
SEQ. ID. NO.:1-Peroxidase Conjugate (Ac-CRVLDGDRTRWG; also: peroxidase conjugate) | completely inhibited | 0.35 ± 0.014% | 0.705 ± 0.09% |  |  |  |  |  |  | 
dextran [reference compound] |  |  |  | 0.05% | 0.16% | 0.63% | 0.38% |  |  | 
tamra-Ala-Ser-Ala-Arg-Val-Leu-Asp-Gly-Asp-Arg-Thr-Arg-Trp-Gly-NH2 ({TAMRA}-ASARVLDGDRTRWG-NH2) [SEQ. ID. NO.: 2] |  |  |  | 0.22% | 0.16% | 1.23% | 0.71% | 86% | 84% | 63%
tamra-D-Ala-D-Ser-D-Ala-D-Arg-D-Val-D-Leu-D-Asp-D-Gly-D-Asp-D-Arg-D-Thr-D-Arg-D-Trp-D-Gly-NH2 ({TAMRA}-[dA][dS][dA][dR][dV][dL][dD]G[dD][dR][dT][dR][dW]G-NH2) [SEQ. ID. NO. 3] |  |  |  | 0.06% | 0.43% | 1.03% | 0.30% |  |  | 
